What was measured:
[1] = biological target: 20S proteasome core particle of Vairimorpha necatrix (Vairimorpha necatrix (endogenous in spores)); assay: cryo-EM structure; 26S proteasomes from germinated sporoplasms, purified with 20 mM ATP; 8.3 Å map without symmetry, AlphaFold models of the RP subunits docked as rigid bodies
[2] = biological target: 20S proteasome core particle of Vairimorpha necatrix (Vairimorpha necatrix (endogenous in spores)); assay: cryo-EM structure; proteasomes from dormant V. necatrix spores, bead-beaten without ATP, lysate on Superose 6 Increase in 50 mM Tris pH 7.4, 300 mM NaCl, 5 mM DTT; 2.8 Å map of the 20S CP, C2 symmetry

“19S regulatory particle of the Vairimorpha necatrix proteasome (complex)” was tested, and the percent of proteasome particles capped by RP [1] was 12% and the percent of proteasome particles capped by RP on both ends [1] was 1.5%.
In the case of “PI31-like protein (PI31L) of Vairimorpha necatrix (natural protein)”, the stoichiometry N (PI31L per 20S core particle) [2] is reported as 2.

Reference: article PMC9666519
